B1: Antibody 31 (scFv, V domains shown)
VH: QVQLVQSGAEVKKPGASVKVSCKASGGTFRSYAISWVRQAPGQGLEWMGWMNPNSGNTGYAQKFQGRVTMTRDTSTSTVYMELSSLRSEDTAVYYCARESVLKGGMDVWGQGTTVTVSS
VL: DIVMTQSPDSLAVSLGERATINCRSSQSLFHSSTNANNLAWYQQKPGQPPKLLIYWASTRESGVPDRFSGSGSGTDFTLTISSLQAEDVAVYYCQQYYITPLTFGQGTRLEIK
B2: Antibody 28 (scFv, V domains shown)
VH: QVQLVQSGAEVKKPGASVKVSCKASGYTFTSYNIHWVRQAPGQGLEWMGWISAYNGNTNYAQKLQGRVTMTRDTSTSTVYMELSSLRSEDTAVYYCALDGGQLGVAFDIWGQGTMVTVSS
VL: DIQMTQSPSSLSASVGDRVTITCRASQGISNWLAWYQQKPGKAPKLLIYDASNLDAGVPSRFSGSGSGTDFTLTISSLQPEDFATYYCQQANSLPLTFGGGTKVEIK
B3: Antibody 11 (scFv, V domains shown)
VH: QVQLVQSGAEVKKPGASVKVSCKASGYTFTSYDINWVRQAPGQGLEWMGWMNPNSGNTGYAQKFQGRVTMTRDTSTSTVYMELSSLRSEDTAVYYCAKGAVAGTYYYYGMDVWGQGTTVTVSS
VL: DIQMTQSPSSLSASVGDRVTITCRASQTINNYLNWYQQKPGKAPKLLIYDASNLETGVPSRFSGSGSGTDFTLTISSLQPEDFATYYCQQANSFPLTFGQGTKVEIK
B4: Antibody 37 (scFv, V domains shown)
VH: QVQLVQSGAEVKKPGASVKVSCKASGYTLNNYDINWVRQAPGQGLEWMGWISGYNGNTNYAQKLQGRVTMTRDTSTSTVYMELSSLRSEDTAVYYCARVGSSWEENDQWGQGTLVTVSS
VL: DIQMTQSPSSLSASVGDRVTITCRASQSISRWLAWYQQKPGKAPKLLIYAASSLESGVPSRFSGSGSGTDFTLTISSLQPEDFATYYCQQTHSFPLTFGGGTKVEIK

target: human SIRPα V1-His monomer protein (human) (UniProt P78324); test: BLI Octet, V5-scFv PPE captured, SIRP-His 500 nM
Sequence (P78324 31-370): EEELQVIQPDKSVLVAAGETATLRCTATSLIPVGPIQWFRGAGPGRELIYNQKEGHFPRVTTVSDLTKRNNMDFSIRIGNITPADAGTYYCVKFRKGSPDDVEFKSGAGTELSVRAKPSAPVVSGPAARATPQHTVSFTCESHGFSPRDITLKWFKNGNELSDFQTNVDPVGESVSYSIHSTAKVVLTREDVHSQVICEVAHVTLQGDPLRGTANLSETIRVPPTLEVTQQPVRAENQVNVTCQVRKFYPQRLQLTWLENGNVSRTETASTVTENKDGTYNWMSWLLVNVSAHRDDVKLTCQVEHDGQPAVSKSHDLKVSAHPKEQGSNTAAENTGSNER

kdis, > 0.01 s⁻¹:
B1
B2
B3
B4

Source: patent publication US20240400677A1
